Reference: the supplement of paper PMC9112550, “Optimization of the antimicrobial peptide Bac7 by deep mutational scanning” (BMC Biology, 2022)

Test system: Escherichia coli TOP10
Assay: shrunken log2 fold change of peptide-encoding DNA abundance (4.5 h post-induction vs induction); higher = less antimicrobial activity (less host growth inhibition)
Details: time post-induction: 4.5 h; library: site-saturation at positions 5, 18, 19, 20
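Note: peptides expressed intracellularly from a pBAD plasmid library in pooled LB shake-flask culture, induced with 0.3% L-arabinose, DNA abundance read by NGS, three biological replicates, DESeq2 with apeglm shrinkage.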

Sequence	shrunken log2 fold change
RRIRGRPPRLPRPRPRPLEMPRP	0.998
RRIRGRPPRLPRPRPRPLQPPRP	0.991
RRIRTRPPRLPRPRPRPAHVPRP	0.0505
RRIRPRPPRLPRPRPRPWALPRP	-0.0895
RRIRDRPPRLPRPRPRPAECPRP	0.232
RRIRRRPPRLPRPRPRPDPEPRP	0.307
RRIRLRPPRLPRPRPRPFHIPRP	-0.292
RRIRERPPRLPRPRPRPVYSPRP	-0.409
RRIRWRPPRLPRPRPRPLLIPRP	0.0213
RRIRWRPPRLPRPRPRPKARPRP	0.836
RRIRCRPPRLPRPRPRPVSTPRP	-0.104
RRIRTRPPRLPRPRPRPSMLPRP	-0.204
RRIRKRPPRLPRPRPRPDPPPRP	0.927
RRIRKRPPRLPRPRPRPKKAPRP	0.0547
RRIRNRPPRLPRPRPRPHYCPRP	-0.481
RRIRCRPPRLPRPRPRPLEQPRP	0.0367
RRIRWRPPRLPRPRPRPIEPPRP	0.0341
RRIRMRPPRLPRPRPRPWTKPRP	-0.0384
RRIRGRPPRLPRPRPRPEPKPRP	0.45
RRIRDRPPRLPRPRPRPCQWPRP	-0.134
RRIRYRPPRLPRPRPRPCLTPRP	-0.125
RRIRSRPPRLPRPRPRPMICPRP	-0.0898
RRIRCRPPRLPRPRPRPGKAPRP	0.00811
RRIRPRPPRLPRPRPRPGMAPRP	0.204
RRIRARPPRLPRPRPRPSQVPRP	0.0429

Sequence	shrunken log2 fold change
RRIRERPPRLPRPRPRPTNIPRP	-0.905
RRIRCRPPRLPRPRPRPAIKPRP	-0.738
RRIRHRPPRLPRPRPRPAWTPRP	-0.136
RRIRRRPPRLPRPRPRPTYYPRP	-0.0395
RRIRWRPPRLPRPRPRPKYDPRP	-0.449
RRIRERPPRLPRPRPRPQRRPRP	-0.0022
RRIRFRPPRLPRPRPRPEIMPRP	-0.269
RRIRCRPPRLPRPRPRPETRPRP	0.209
RRIRVRPPRLPRPRPRPSNPPRP	-0.454
RRIRSRPPRLPRPRPRPGHDPRP	-0.0796
RRIRCRPPRLPRPRPRPKGGPRP	0.094
RRIRYRPPRLPRPRPRPNEMPRP	0.0143
RRIRGRPPRLPRPRPRPPDKPRP	1.17
RRIRVRPPRLPRPRPRPMSHPRP	0.171
RRIRFRPPRLPRPRPRPDAWPRP	0.0823
RRIRCRPPRLPRPRPRPNNAPRP	-0.799
RRIRPRPPRLPRPRPRPEVEPRP	-0.00972
RRIRERPPRLPRPRPRPDFPPRP	0.00147
RRIRNRPPRLPRPRPRPRDVPRP	0.0624
RRIRHRPPRLPRPRPRPYWPPRP	-0.306
RRIRIRPPRLPRPRPRPMRKPRP	0.0125
RRIRCRPPRLPRPRPRPPINPRP	-0.319
RRIRKRPPRLPRPRPRPVTLPRP	0.163
RRIRQRPPRLPRPRPRPTCIPRP	-0.0736
RRIRLRPPRLPRPRPRPKEMPRP	0.0765

Sequence	shrunken log2 fold change
RRIRVRPPRLPRPRPRPSNWPRP	-0.331
RRIRTRPPRLPRPRPRPAKCPRP	0.0582
RRIRLRPPRLPRPRPRPQVWPRP	0.000105
RRIRIRPPRLPRPRPRPVVHPRP	-0.000671
RRIRCRPPRLPRPRPRPQWVPRP	-0.103
RRIRGRPPRLPRPRPRPGMLPRP	0.498
RRIRFRPPRLPRPRPRPINWPRP	-0.113
RRIRVRPPRLPRPRPRPIYQPRP	-0.27
RRIRTRPPRLPRPRPRPTMVPRP	-0.0941
RRIRDRPPRLPRPRPRPYVVPRP	-0.159
RRIRPRPPRLPRPRPRPAGYPRP	-0.189
RRIRQRPPRLPRPRPRPSDQPRP	0.152
RRIRARPPRLPRPRPRPCVTPRP	0.176
RRIRTRPPRLPRPRPRPWCLPRP	-0.596
RRIRRRPPRLPRPRPRPCPEPRP	0.0178
RRIRWRPPRLPRPRPRPVMAPRP	0.171
RRIRDRPPRLPRPRPRPVAQPRP	0.616
RRIRDRPPRLPRPRPRPNYVPRP	-0.147
RRIRMRPPRLPRPRPRPLMWPRP	0.268
RRIRARPPRLPRPRPRPHPIPRP	0.286
RRIRIRPPRLPRPRPRPCTVPRP	-0.337
RRIRVRPPRLPRPRPRPHFKPRP	-0.0898
RRIRRRPPRLPRPRPRPTDMPRP	-0.0645
RRIRSRPPRLPRPRPRPLKLPRP	-0.15
RRIRWRPPRLPRPRPRPRVTPRP	1.75

Sequence	shrunken log2 fold change
RRIRMRPPRLPRPRPRPAARPRP	0.975
RRIRLRPPRLPRPRPRPGALPRP	0.0546
RRIRLRPPRLPRPRPRPARVPRP	0.329
RRIRWRPPRLPRPRPRPDCVPRP	0.197
RRIRIRPPRLPRPRPRPACYPRP	-0.472
RRIRCRPPRLPRPRPRPHHDPRP	-0.58
RRIRVRPPRLPRPRPRPLGYPRP	-0.0838
RRIRQRPPRLPRPRPRPPDKPRP	-0.116
RRIRKRPPRLPRPRPRPDIYPRP	0.152
RRIRSRPPRLPRPRPRPQQDPRP	-0.164
RRIRIRPPRLPRPRPRPSDWPRP	-0.0413
RRIRKRPPRLPRPRPRPYPPPRP	-0.289
RRIRSRPPRLPRPRPRPPIAPRP	2.36
RRIRSRPPRLPRPRPRPIRLPRP	-0.27
RRIRFRPPRLPRPRPRPKTLPRP	-0.145
RRIRERPPRLPRPRPRPMQGPRP	-0.0783
RRIRFRPPRLPRPRPRPGWWPRP	-0.0573
RRIRNRPPRLPRPRPRPHVEPRP	-0.326
RRIRTRPPRLPRPRPRPWGAPRP	0.211
RRIRKRPPRLPRPRPRPYLGPRP	-0.0981
RRIRVRPPRLPRPRPRPGTSPRP	-0.073
RRIRARPPRLPRPRPRPFDIPRP	-0.127
RRIRCRPPRLPRPRPRPNFSPRP	-0.382
RRIRPRPPRLPRPRPRPYLIPRP	-0.445
RRIRLRPPRLPRPRPRPNQEPRP	0.0423

Sequence	shrunken log2 fold change
RRIRDRPPRLPRPRPRPPVRPRP	0.0542
RRIRMRPPRLPRPRPRPGIMPRP	0.246
RRIRRRPPRLPRPRPRPFNIPRP	-0.491
RRIRERPPRLPRPRPRPEKWPRP	-0.0225
RRIRARPPRLPRPRPRPVIQPRP	0.0904
RRIRERPPRLPRPRPRPLNSPRP	-0.432
RRIRSRPPRLPRPRPRPFMDPRP	-0.519
RRIRLRPPRLPRPRPRPTMTPRP	-0.256
RRIRGRPPRLPRPRPRPPLHPRP	0.501
RRIRCRPPRLPRPRPRPGAGPRP	0.364
RRIRVRPPRLPRPRPRPSCHPRP	0.292
RRIRQRPPRLPRPRPRPVIVPRP	-0.0674
RRIRFRPPRLPRPRPRPDFKPRP	-0.296
RRIRERPPRLPRPRPRPCHEPRP	-0.0789
RRIRERPPRLPRPRPRPPVSPRP	0.0232
RRIRWRPPRLPRPRPRPKWLPRP	0.19
RRIRKRPPRLPRPRPRPSSHPRP	-0.163
RRIRMRPPRLPRPRPRPDEIPRP	2.86
RRIRPRPPRLPRPRPRPVLLPRP	0.00267
RRIRARPPRLPRPRPRPYWKPRP	-0.0819
RRIRDRPPRLPRPRPRPRDLPRP	0.139
RRIRMRPPRLPRPRPRPYNNPRP	-0.4
RRIRKRPPRLPRPRPRPWWSPRP	-0.00415
RRIRYRPPRLPRPRPRPRHAPRP	-0.0916
RRIRQRPPRLPRPRPRPNTNPRP	-0.47
